Assays:
[1] = target: T1, interaction between CIITA and Flag-RFXANK (Homo sapiens, UniProt P33076); test: CIITA/RFXANK interaction assay, competition with untagged RFXANK; format: binding; settings: FIG. 7
T1 construct: made in house; host or cells: Sf9 insect cells (recombinant baculovirus); CIITA co-infected with a BirA baculovirus
T1 sequence (P33076 1-1130): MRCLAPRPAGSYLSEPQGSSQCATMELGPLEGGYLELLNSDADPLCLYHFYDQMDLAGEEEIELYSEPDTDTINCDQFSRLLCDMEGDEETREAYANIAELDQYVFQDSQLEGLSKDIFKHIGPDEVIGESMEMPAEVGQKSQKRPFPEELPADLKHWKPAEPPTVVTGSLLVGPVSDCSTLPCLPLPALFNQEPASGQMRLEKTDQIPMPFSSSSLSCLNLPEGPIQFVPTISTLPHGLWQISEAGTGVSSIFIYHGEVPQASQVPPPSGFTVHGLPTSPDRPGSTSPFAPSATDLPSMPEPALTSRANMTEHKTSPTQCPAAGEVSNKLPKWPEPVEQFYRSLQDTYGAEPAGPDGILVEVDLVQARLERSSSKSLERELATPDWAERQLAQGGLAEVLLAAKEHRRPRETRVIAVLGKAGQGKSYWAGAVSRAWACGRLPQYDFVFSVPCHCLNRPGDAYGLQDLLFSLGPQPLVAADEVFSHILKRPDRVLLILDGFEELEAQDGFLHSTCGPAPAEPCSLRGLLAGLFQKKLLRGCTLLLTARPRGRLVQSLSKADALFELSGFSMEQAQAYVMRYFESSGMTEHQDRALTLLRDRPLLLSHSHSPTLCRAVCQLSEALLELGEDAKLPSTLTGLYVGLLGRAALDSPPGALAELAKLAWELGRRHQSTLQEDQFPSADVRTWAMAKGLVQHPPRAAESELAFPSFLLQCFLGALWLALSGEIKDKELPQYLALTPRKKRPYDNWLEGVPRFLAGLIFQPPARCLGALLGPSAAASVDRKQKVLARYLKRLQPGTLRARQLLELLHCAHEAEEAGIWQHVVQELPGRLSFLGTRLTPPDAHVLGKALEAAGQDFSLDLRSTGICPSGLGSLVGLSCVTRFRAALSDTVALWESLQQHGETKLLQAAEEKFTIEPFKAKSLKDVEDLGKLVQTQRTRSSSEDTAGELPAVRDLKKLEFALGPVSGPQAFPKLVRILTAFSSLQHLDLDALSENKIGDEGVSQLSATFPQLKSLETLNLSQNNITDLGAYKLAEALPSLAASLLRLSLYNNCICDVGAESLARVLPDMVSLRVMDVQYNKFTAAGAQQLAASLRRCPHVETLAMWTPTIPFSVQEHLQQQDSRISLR
Description: Plasmids. The CIITA gene sequence was cloned into a modified pBAC-2 cp vector (Novagen) with a biotinylation tag inserted at the 5′ end of the gene. The RFXANK gene sequence containing a Flag tag at its N-terminus was cloned into a pFBHT vector (Invitrogen). These plasmids were used to generate recombinant baculoviruses according to standard procedures. Protein production: Sf9 cells grown in SF-900II medium (Invitrogen) were infected at MOI of 10 for 72 h before harvesting. To obtain in vivo biotinylated CIITA, Sf9 cells were co-infected with an E. coli biotin ligase expressing baculovirus (BirA gene) at a MOI of 1. Protein were purified using metal chelating affinity chromatography on HiTrap chelating column (Pharmacia). Purified fractions were pooled and quantified using ESL protein quantification kit (Roche) and the extent of CIITA biotinylation was estimated by pulldown experiments with Streptavidin-coated magnetic beads followed by PAGE analysis.
Assay. […] Wells were washed 5 times with 200 μl of wash solution (PBS; 0.05% Tween 20) and the adequate substrates for HRP were added to the well for either colorimetry, fluorescence or luminescence detection. […]

Biotinylated-CIITA = target: T2, Biotinylated-CIITA (UniProt P33076 1-1130, biotin on the biotinylation tag (in vivo biotinylation by co-expressed E. coli biotin ligase BirA; level close to 100%)); test: solid-phase plate assay: biotinylated CIITA on a streptavidin well, Flag-RFXANK detected with M2:HRP, colorimetric; assay and negative control each performed 48 times
T2 construct: Made in Sf9 cells from a modified pBAC-2cp baculovirus vector; also called recombinant biotinylated-CIITA; not shown: biotinylation tag inserted at the 5' end of the gene
T2 sequence (looked up): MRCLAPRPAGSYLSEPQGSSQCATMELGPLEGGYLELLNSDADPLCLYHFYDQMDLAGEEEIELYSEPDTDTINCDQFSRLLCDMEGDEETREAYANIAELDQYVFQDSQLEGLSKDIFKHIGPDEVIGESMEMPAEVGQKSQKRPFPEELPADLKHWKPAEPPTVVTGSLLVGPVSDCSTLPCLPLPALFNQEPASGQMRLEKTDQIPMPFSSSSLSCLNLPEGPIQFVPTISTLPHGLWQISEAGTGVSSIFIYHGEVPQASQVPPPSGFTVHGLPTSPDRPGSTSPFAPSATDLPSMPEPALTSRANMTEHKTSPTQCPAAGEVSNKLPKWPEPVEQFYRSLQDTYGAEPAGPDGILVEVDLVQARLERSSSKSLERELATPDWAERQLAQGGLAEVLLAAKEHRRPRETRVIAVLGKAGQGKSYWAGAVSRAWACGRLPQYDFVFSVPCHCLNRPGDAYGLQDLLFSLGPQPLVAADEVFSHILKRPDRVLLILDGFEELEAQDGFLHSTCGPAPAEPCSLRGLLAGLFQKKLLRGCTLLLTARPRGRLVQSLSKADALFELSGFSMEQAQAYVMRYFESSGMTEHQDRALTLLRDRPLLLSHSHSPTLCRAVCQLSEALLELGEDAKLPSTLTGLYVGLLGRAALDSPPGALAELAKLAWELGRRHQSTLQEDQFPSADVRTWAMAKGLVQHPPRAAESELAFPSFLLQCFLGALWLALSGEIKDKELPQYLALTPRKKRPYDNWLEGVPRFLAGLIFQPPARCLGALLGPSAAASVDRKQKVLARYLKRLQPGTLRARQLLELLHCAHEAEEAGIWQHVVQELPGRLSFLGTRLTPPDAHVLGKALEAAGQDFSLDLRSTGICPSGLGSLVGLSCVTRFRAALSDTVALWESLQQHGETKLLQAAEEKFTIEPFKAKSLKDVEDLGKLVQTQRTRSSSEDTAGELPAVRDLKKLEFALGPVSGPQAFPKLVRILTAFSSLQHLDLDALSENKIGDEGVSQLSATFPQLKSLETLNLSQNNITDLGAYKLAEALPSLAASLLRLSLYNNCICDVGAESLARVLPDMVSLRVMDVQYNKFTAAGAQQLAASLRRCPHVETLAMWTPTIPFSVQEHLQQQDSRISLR
Description: Assay. Biotinylated-CIITA (0.5 μg) and 0.8 μg of Flag-RFXANK in 100 μl of assay buffer (50 mM Hepes pH7.8; 10% glycerol; 5 mM MgCl₂; 0.1 mM EDTA; 0.01% NP-40; 200 mM KCl; 0.5% BSA; 0.1% Tween 20; 2 mM DTT) were incubated in a streptavidin-coated microwell for 2 h at room temperature. Wells containing no protein, only biotinylated CIITA or Flag RFXANK were included as controls. Wells were washed 5 times with 200 μl of wash solution (PBS; 0.05% Tween 20). 100 μl of Assay Buffer containing 0.5 μg/ml M2:HRP antibody (Sigma) was added to each well and incubated for 1 h at room temperature. Wells were washed 5 times with 200 μl of wash solution (PBS; 0.05% Tween 20) and the adequate substrates for HRP were added to the well for either colorimetry, fluorescence or luminescence detection.
To examine its reproducibility, the assay and negative control were performed 48 times. […] Increasing amounts of RFXANK were added to the wells containing biotinylated CIITA and Flag-RFXANK in the same assay as described above.

B1: RFXANK having an N-terminal Flag tag (Flag-RFXANK) (other, UniProt O14593 1-260, looked up)
chain: MELTQPAEDLIQTQQTPASELGDPEDPGEEAADGSDTVVLSLFPCTPEPVNPEPDASVSSPQAGSSLKHSTTLTNRQRGNEVSALPATLDSLSIHQLAAQGELDQLKEHLRKGDNLVNKPDERGFTPLIWASAFGEIETVRFLLEWGADPHILAKERESALSLASTGGYTDIVGLLLERDVDINIYDWNGGTPLLYAVRGNHVKCVEALLARGADLTTEADSGYTPMDLAVALGYRKVQQVIENHILKLFQSNLVPADPE
notes: not shown: Flag tag at the N-terminus
- reduction of signal of the CIITA/Flag-RFXANK interaction ([1]; equivalent amounts of Flag-RFXANK and RFXANK): approximately 50%
- competition of Flag-RFXANK for binding to CIITA ([1]; increasing amounts of RFXANK added to wells containing biotinylated CIITA and Flag-RFXANK): specifically competed by RFXANK for binding to CIITA in a dose-dependent manner
- signal to background ratio (S/B) (Biotinylated-CIITA): 11.8
